Positions count from the first letter of the chain named.
Key:
Assay in all cases: SPR
GkDnaC K50A = target: T1, GkDnaC K50A (Geobacillus kaustophilus HTA426, UniProt Q5KU75 1-454, K50A)
T1 sequence: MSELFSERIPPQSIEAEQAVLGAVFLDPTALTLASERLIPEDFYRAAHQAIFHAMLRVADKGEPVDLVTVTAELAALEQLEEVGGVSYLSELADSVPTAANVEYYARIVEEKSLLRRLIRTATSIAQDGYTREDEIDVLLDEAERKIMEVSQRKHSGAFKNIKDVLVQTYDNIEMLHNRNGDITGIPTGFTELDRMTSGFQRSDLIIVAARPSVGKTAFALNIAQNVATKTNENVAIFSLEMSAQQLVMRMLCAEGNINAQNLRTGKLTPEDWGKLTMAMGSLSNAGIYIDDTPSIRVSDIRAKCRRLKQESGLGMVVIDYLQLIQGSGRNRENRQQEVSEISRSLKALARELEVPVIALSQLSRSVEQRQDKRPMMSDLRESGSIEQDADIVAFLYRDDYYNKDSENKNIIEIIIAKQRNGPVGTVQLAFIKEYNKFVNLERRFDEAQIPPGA

[1] = target: T2, GkDnaC replicative helicase WT (Geobacillus kaustophilus HTA426, UniProt Q5KU75 1-454)
T2 sequence: T1 sequence with A50K

GkDnaC R344A = target: T3, GkDnaC R344A (Geobacillus kaustophilus HTA426, UniProt Q5KU75 1-454, R344A)
T3 sequence: T1 sequence with A50K, R344A

GkDnaC R332A = target: T4, GkDnaC R332A (Geobacillus kaustophilus HTA426, UniProt Q5KU75 1-454, R332A)
T4 sequence: T1 sequence with A50K, R332A

TTTTTTTTTTTTTTTTTTTTTTTTTTTTTT (ssDNA) [5'Bio-(dT)30] was tested, and the Kd (GkDnaC K50A) was 1.41 µM, the Kd [1] was 0.0469 µM and the Kd (GkDnaC R344A) was 17.9 µM. It also gave a Kd (GkDnaC R332A) of 6.64 µM.

From publication PMC2647316 (Nucleic Acids Research, 2008)
